Assay results: PMC10871292

Biological target: Transglutaminase 2 (TG2), wildtype, human, recombinant (human) (UniProt P21980)
Test: SAXS

“Transglutaminase 2 (TG2), wildtype, human, recombinant (from UniProt P21980 1-687) (enzyme)” gave a percent dimer (initial state, t=0 ms) of 61% and a percent monomer (initial state, t=0 ms) of 39%.
